B1: E9.4 (antibody, V domains shown)
VH: EVQLQESGPGLVKPSETLSLTCTVSGGSISSSSYYWGWIRQPPGKGLEWIGDIYYTGSTYYNPSLKSRVTISVDTSKNQFSLKLSSVTAADTAVYYCARYDVSLGGSSDHWGQGTLVTVSS
VL: SYELTQPPSVSVSPGQTASITCSGQRLGDKYASWYQQKPGQSPVLVIYEDSKRPSGIPERFSGSNSGDTATLTISGTQPMDEADYYCQAWDRDTGVFGYGTKVTVL
notes: also called DLL4-E9-4 hIgG1/L
B2: E9.1F (antibody, V domains shown)
VH: B1 VH with S32G, Y54N, T56I, Y100E, D101A, L104F, S107G, S108A, H110S
VL: B1 VL with Q25D, A32V, K52Q, P79A, R92M, D93E, T94A, Y99S
notes: also called E9.IF
B3: E9.10H (antibody, V domains shown)
VH: B1 VH with S33G, S58N, S67N, Y100E, D101E, S103I, S107G, S108A, H110Q
VL: SYELTQPPSVSVSPGQTASITCSGESLGDKYVSWYQQKPGQSPVLVIYEDSKRPSGIPERFSGSNSGDTATLTISGTQAMDEADYYCQAWDGETGVFGSGTKVT
B4: E9.12B (antibody, V domains shown)
VH: B1 VH with S33N, Y100E, D101A, L104F, S107G, S108A, H110S
VL: B3 VL with E25D, S26G, K52T, A79P, G92S, T94S
B5: E9.10E (antibody, V domains shown)
VH: B1 VH with S30N, S32G, S33N, Y54S, Y100E, S103M, L104Y, S107G, S108G, H110S
VL: B3 VL with S26G, K52E, G92S, T94A
B6: E9.22 (antibody, V domains shown)
VH: B1 VH with S31N, S33R, Y35H, S67G, Y100E, S103I, G105R, S107G, H110Y
VL: B1 VL
notes: also called DLL4-E9-22 hIgG1/L
B7: E9.48 (antibody, V domains shown)
VH: B1 VH with S33G, Y54N, T56R, Y100E, S103I, G105R, S107G, H110Y
VL: B1 VL
notes: also called DLL4-E9-48 hIgG1/L
B8: E9.5E (antibody, V domains shown)
VH: B1 VH with Y54N, T56I, Y100E, D101S, S103P, S107G, S108A, H110E
VL: B3 VL with E25D, S26M, K52Q, A79P, G92S
B9: E9.11 (antibody, V domains shown)
VH: B1 VH with Y100E, D101A, S103P, S107G, H110Y
VL: B1 VL
notes: also called DLL4-E9-11 hIgG1/L
B10: E9.38 (antibody, V domains shown)
VH: B1 VH with Y100E, S103I, G105R, S107G, H110Y
VL: B1 VL with A32V, T94V, Y99S
notes: also called DLL4-E9-38 hIgG1/L
B11: E9.66 (antibody, V domains shown)
VH: B1 VH with Y100E, D101G, S103P, S107G, S108A, H110K
VL: B1 VL
notes: also called DLL4-E9-66 hIgG1/L
B12: E9.71(M) (antibody, human IgG1, V domains shown)
VH: B1 VH with Y100Q, D101A, V102L, S103A, L104M, S107G, H110K
VL: SYELTQPPSVSVSPGQTASITCSGQRLGDKYASWYQQKPGQSPVLVIYEDSKRPSGIPERFSGSNSGDTATLTISGTQPMDEADYYCQAWDRDTGVFGGGTKLTVLG

The results in this text go back to patent publication US20200255508A1 (AbbVie / Abbott, published 2020).

Residue numbers refer to the chain shown, from its start.

As usually defined, the Kd is the free concentration of one partner at which half of the binding sites on the other are occupied at equilibrium, for simple one-to-one binding. The low end stands for higher affinity, the high end for lower affinity. In general, koff refers to the rate constant with which the complex falls apart. A word on the kon: it is the rate constant with which the complex forms. Read a high kon as faster complex formation. Usually IC50 stands for the concentration needed to halve the response being measured. Lower therefore signals greater potency in that assay. For orientation: EC50 means the concentration at which the effect is half-maximal.

T3 sequence (Q9JI71 27-686): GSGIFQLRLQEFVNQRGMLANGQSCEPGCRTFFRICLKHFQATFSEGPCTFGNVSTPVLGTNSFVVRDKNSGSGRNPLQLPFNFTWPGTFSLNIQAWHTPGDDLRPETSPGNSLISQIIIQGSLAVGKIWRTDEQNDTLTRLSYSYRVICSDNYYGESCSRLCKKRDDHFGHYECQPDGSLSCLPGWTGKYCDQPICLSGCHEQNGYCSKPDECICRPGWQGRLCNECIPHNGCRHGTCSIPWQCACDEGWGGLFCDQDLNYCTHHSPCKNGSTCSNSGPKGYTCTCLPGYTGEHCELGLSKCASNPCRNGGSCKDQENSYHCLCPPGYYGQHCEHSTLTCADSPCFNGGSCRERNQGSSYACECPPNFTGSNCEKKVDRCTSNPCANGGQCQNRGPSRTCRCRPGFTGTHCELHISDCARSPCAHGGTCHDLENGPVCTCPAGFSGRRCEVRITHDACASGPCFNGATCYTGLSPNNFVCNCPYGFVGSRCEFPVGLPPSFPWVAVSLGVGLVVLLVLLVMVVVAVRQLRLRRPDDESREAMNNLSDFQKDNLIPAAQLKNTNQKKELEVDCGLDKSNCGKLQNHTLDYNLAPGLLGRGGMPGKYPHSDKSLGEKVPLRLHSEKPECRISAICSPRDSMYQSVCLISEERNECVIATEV
T2 sequence (Q9JI71 27-532): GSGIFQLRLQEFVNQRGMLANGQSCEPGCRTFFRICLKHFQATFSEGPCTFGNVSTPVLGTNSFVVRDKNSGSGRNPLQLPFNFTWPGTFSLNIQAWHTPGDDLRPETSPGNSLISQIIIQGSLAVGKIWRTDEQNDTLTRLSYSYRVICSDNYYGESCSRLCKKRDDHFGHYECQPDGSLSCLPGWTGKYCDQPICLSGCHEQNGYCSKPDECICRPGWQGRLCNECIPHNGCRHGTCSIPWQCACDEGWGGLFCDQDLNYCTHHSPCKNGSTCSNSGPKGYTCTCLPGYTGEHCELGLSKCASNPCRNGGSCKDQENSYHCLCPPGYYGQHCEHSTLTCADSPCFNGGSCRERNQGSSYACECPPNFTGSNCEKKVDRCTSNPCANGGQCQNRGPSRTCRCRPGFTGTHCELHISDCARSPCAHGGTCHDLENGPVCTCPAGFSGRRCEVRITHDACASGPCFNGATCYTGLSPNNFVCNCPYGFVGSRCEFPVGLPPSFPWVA

The first assay concerns the target T1, human DLL4 extracellular domain (human, UniProt Q9NR61 27-529).
T1 construct: extracellular domain; coated on plates in the sVEGFR1 assay; also called huDLL4 ECD; Human DLL4 ECD
Briefly: Biacore SPR.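 Note: surface plasmon resonance on a Biacore instrument, antibodies captured on immobilized anti-human Fc, purified recombinant DLL4 extracellular domain injected as analyte, binding followed over time.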 A general note: SPR reads the build-up and loss of mass on a sensor chip optically.
B1 registered an equilibrium dissociation constant (Kd) of 0.58 nM, a koff of 3.31e-05 s⁻¹ and a kon of 56700 M⁻¹ s⁻¹.

Take B2: the Kd turned out to be 0.05 nM, the koff was determined as 1.16e-05 s⁻¹ and the kon amounted to 218000 M⁻¹ s⁻¹.

B3: the Kd is 0.57 nM, the koff stood at 5.9e-05 s⁻¹ and the kon was 104000 M⁻¹ s⁻¹.

On to B4, for which the Kd was 0.02 nM, the koff was determined as 3.1e-06 s⁻¹ and the kon worked out at 151000 M⁻¹ s⁻¹.

With B5, the affinity, expressed as Kd, was 0.21 nM; the koff amounted to 4.62e-05 s⁻¹; the kon was found to be 218000 M⁻¹ s⁻¹.

With B6, the Kd stood at 8.46 nM, the off-rate constant (koff) came to 0.000331 s⁻¹ and the kon turned out to be 39100 M⁻¹ s⁻¹.

For the molecule B7, the Kd worked out at 6.92 nM, the koff was determined as 7.59e-05 s⁻¹ and the association rate constant (kon) stood at 11000 M⁻¹ s⁻¹.

In the case of B8, the Kd was found to be 0.04 nM, the koff stood at 6e-06 s⁻¹ and the kon was found to be 150000 M⁻¹ s⁻¹.

Take B9: the Kd amounted to 0.48 nM, the koff was 1.74e-05 s⁻¹ and the kon was found to be 36300 M⁻¹ s⁻¹.

The molecule B10 displayed a dissociation constant (Kd) of 2.75 nM, an off-rate constant (koff) of 3.48e-05 s⁻¹ and a kon of 12700 M⁻¹ s⁻¹.

Take B11: the Kd came to 0.078 nM, the koff stood at 2.5e-06 s⁻¹ and the association rate constant (kon) worked out at 32600 M⁻¹ s⁻¹.

A further assay has as its target T2, mouse DLL4 extracellular domain (mouse, UniProt Q9JI71 27-532).
T2 construct: extracellular domain; also called muDLL4 ECD; Mouse DLL4 ECD
The assay is described as follows: Biacore SPR.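 Note: surface plasmon resonance on a Biacore instrument, antibodies captured on immobilized anti-human Fc, purified recombinant DLL4 extracellular domain injected as analyte, binding followed over time.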
B1 came in with an equilibrium dissociation constant (Kd) of 1.12 nM, a koff of 6.01e-05 s⁻¹ and a kon of 53800 M⁻¹ s⁻¹.

B3: the Kd stood at 0.34 nM, the koff came to 2.23e-05 s⁻¹ and the kon amounted to 65300 M⁻¹ s⁻¹.

Molecule B4 came in with a Kd of 0.18 nM, a koff of 1.47e-05 s⁻¹ and a kon of 83500 M⁻¹ s⁻¹.

As for B5, the affinity, expressed as Kd, was 0.62 nM; the koff is 9.41e-05 s⁻¹; the kon came to 151000 M⁻¹ s⁻¹.

In turn, B6 had a Kd of 3.5 nM, an off-rate (koff) of 0.000133 s⁻¹ and a kon of 37800 M⁻¹ s⁻¹.

B7 showed a Kd of 2.53 nM, a koff of 4.17e-05 s⁻¹ and a kon of 16500 M⁻¹ s⁻¹.

For B8, the Kd amounted to 0.02 nM, the dissociation rate constant (koff) is 2e-06 s⁻¹ and the kon is 89000 M⁻¹ s⁻¹.

On to B9, for which the affinity, expressed as Kd, was 0.5 nM; the koff came to 1.39e-05 s⁻¹; the kon was found to be 27700 M⁻¹ s⁻¹.

The molecule B10 had a Kd of 9.27 nM, a koff of 0.000171 s⁻¹ and a kon of 18400 M⁻¹ s⁻¹.

B11 gave a dissociation constant Kd of 0.5 nM, a koff of 1.44e-05 s⁻¹ and a kon of 28900 M⁻¹ s⁻¹.

Another assay concerns the target T3, mouse DLL4 on the cell surface (mouse, UniProt Q9JI71 27-686).
T3 construct: whole, on cells; also called HEK293-mDLL4; mDLL4-293G
The assay is described as follows: competition FACS, competitor huNotch-1.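 Note: stable cell lines displaying human or mouse DLL4 on their surface, Notch binding detected by flow cytometry via R-phycoerythrin streptavidin fluorescence.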
Method: (§1) Notch blocking assay: Briefly, stable cell lines overexpressing cell-surface DLL4 were harvested from tissue culture flasks and re-suspended in phosphate buffered saline (PBS) containing 1% bovine serum albumin and 1 mM CaCl₂ (FACS buffer). HEK293-hDLL4 or HEK293-mDLL4 cells were dispensed into 96-well plate (v-bottom) at 1.5×10⁵ cells/well in FACS buffer. […] After washing the cells two times with FACS buffer, 50 μL of R-phycoerythrin-conjugated streptavidin (1:150 dilution in FACS buffer) (Jackson ImmunoResearch, West Grove, Pa., US, catalog no. 016-110-084) were added. Following an incubation on ice (4° C., 60 minutes), cells were washed three times and resuspended in FACS buffer. Fluorescence was measured using a Becton Dickinson FACSCalibur-HTS (Becton Dickinson, San Jose. Calif.).
In turn, B1 yielded an IC50 of 0.3 nM.

The molecule B2 came in with an IC50 of 0.65 nM. This IC50 lies about 2.2-fold higher than the previous one.

Molecule B3 showed a concentration for half-maximal inhibition (IC50) of 0.6 nM.

Take B4: the IC50 is 0.37 nM.

In turn, B5 gave an IC50 of 0.36 nM.

In turn, B6 yielded an IC50 of 2.63 nM.

Molecule B7 showed an IC50 of 1.3 nM.

B8 came in with an IC50 of 0.34 nM.

B9 registered an IC50 of 2.06 nM.

Molecule B10 returned an IC50 of 1.2 nM.

The molecule B11 registered an IC50 of 0.99 nM. This IC50 and that of the molecule before are within 1.5-fold of each other.

In the case of B12, the IC50 came out at 0.18 nM.

Another assay addresses T4, human DLL4 on the cell surface (human, UniProt Q9NR61 27-685).
T4 construct: whole, on cells; also called HEK293-hDLL4; hDLL4-293G
The assay is described as follows: competition FACS, competitor huNotch-1.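 Note: stable cell lines displaying human or mouse DLL4 on their surface, Notch binding detected by flow cytometry via R-phycoerythrin streptavidin fluorescence.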
Method: as §1
As for B1, the IC50 came to 4.3 nM.

The molecule B2 showed an IC50 of 6.55 nM. This IC50 is about 1.5-fold higher than that of the molecule before.

Take B3: the IC50 is 5.65 nM. The IC50 values of the last two molecules are within 1.5-fold of each other.

Molecule B4 came in with an IC50 of 4.44 nM.

In turn, B5 returned an IC50 of 3.83 nM.

In turn, B6 gave an IC50 of 21.1 nM. This IC50 is about 5.5-fold higher than that of the molecule before.

The molecule B7 yielded a concentration for half-maximal inhibition (IC50) of 9.12 nM.

The molecule B8 yielded an IC50 of 3.76 nM.

Take B9: the IC50 came out at 14.8 nM.

As for B10, the IC50 was 7.76 nM. This IC50 lies about 1.9-fold lower than the previous one.

B11: the IC50 was determined as 5.03 nM.

In turn, B12 had an IC50 of 2.12 nM.

The target in another assay is T3, mouse DLL4 on the cell surface. The assay is described as follows: FACS on DLL4 cells.
With B1, the EC50 came to 0.63 nM.

In the case of B2, the EC50 turned out to be 0.37 nM. Against the preceding molecule, the EC50 is about 1.7-fold lower.

As to B3, the EC50 was determined as 0.82 nM.

In the case of B4, the EC50 was determined as 0.71 nM. The EC50 values of the last two molecules are within 1.5-fold of each other.

Turning to B5, the EC50 was determined as 1.19 nM.

As to B6, the EC50 amounted to 37.4 nM.

With B8, it took 0.89 nM to reach a half-maximal effect (EC50).

In the case of B9, the EC50 is 1.45 nM. Compared with the last molecule, the EC50 is about 1.6-fold higher.

Consider B10, for which the EC50 worked out at 0.13 nM.

The molecule B11 registered an EC50 of 0.7 nM. This EC50 is about 5.4-fold higher than that of the molecule before.

The molecule B12 came in with an EC50 of 0.29 nM.

In another assay the target is T4, human DLL4 on the cell surface. The assay is described as follows: FACS on DLL4 cells.
Consider B1, for which the EC50 stood at 1.63 nM.

As for B2, a half-maximal effect (EC50) was put at 2.65 nM.

For B3, a half-maximal response (EC50) required 3.52 nM.

In the case of B4, the EC50 stood at 3.34 nM.

B5 came in with an EC50 of 5.1 nM.

B6 returned an EC50 of 34.3 nM.

B8 showed an EC50 of 2.7 nM.

Molecule B9 yielded an EC50 of 4.46 nM.

As to B10, the EC50 is 1.66 nM.

Take B11: the EC50 worked out at 2.02 nM.

As to B12, the EC50 came out at 0.27 nM.
